Test results reported in the supplement of paper PMC7877785.
± gives the uncertainty stated by the source.

Assay: self-splicing fitness, log relative to wild type (ln ratio); higher = more splicing; Tetrahymena group I intron in knt gene, E. coli kanamycin selection, DiMSum; sequences stand for … in CUCUCU…GGAGGGAAAAGUUAUCAGGCAUGCACCUGGUAGCUAGUCUUUAAACCAAUAGAUUGCAUCGGUUUAAAAGGCAAGACCGUCAAAUUGCGGGAAAGGGGUCAACAGCCGUUCAGUACCAAGUCUCAGGGGAAACUUUGAGAUGGCCUUGCAAAGGGUAUGGUAAUAAGCUGACGGACAUGGUCCUAACCACGCAGCCAAGUCCUAAGUCAACAGAUCUUCUGUUGAUAUGGAUGCAGUUCACAGACUAAAUGUCGGUCGGGGAAGAUGUAUUCUUCUCAUAAGAUAUAGUCGGACCUCUCCUUAAUGGGAGCUAGCGGAUGAAGUGAUGCAACACUGGAGCCGCUGGGAACUAAUUUGUAUGCGAAAGUAUAUUGAUUAGUUUUGGAGUACUCGUGGUCG
Method in brief: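 Colonies from six replicate transformations of E. coli BL21(DE3) were pooled and amplicon-sequenced on an Illumina HiSeq 2500. The library placed an intron with all eight P1ex-region nucleotides randomised inside the knt kanamycin-resistance gene on pET-22b(+), and cells grew overnight at 37°C or 30°C on LB agar with or without 25 μg/mL kanamycin (plus 100 μg/mL carbenicillin, 50 μM IPTG, 0.2% rhamnose). Fitness is the DiMSum error-weighted combination of wild-type-normalised replicate fold changes, kanamycin versus none.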

Sequence	self-splicing fitness (ln) (30 °C)	self-splicing fitness (ln) (37 °C)
CUUAAGCAAUAUUACGGAUG	-0.76 ± 0.056	-0.0373 ± 0.077
CUUAAGCAAUAUUACGUAUA	-2.9 ± 0.23	-3.19 ± 0.29
CUUAAGCAAUAUUACGUUCA	-2.9 ± 0.27	-3.79 ± 0.47
CUUAAGCAAUAUUACGUUGC		-2.03 ± 0.35
CUUAAGCAAUAUUACGUUUG	-3.89 ± 0.2	-2.73 ± 0.3
CUUAAGCAAUAUUACGUUUU	-4.2 ± 0.25	-2.07 ± 0.21
CUUCAGCAAUAUUACGAACU	-3.9 ± 0.37	-1.75 ± 0.27
CUUCAGCAAUAUUACGACGU	-3.67 ± 0.21	-2.12 ± 0.21
CUUCAGCAAUAUUACGACUA	-2.12 ± 0.39	
CUUCAGCAAUAUUACGAUGA	-4.12 ± 0.42	-1.71 ± 0.25
CUUCAGCAAUAUUACGCAGA	-3.44 ± 0.37	-2.18 ± 0.22
CUUCAGCAAUAUUACGCAGG	-4.17 ± 0.34	-2.07 ± 0.26
CUUCAGCAAUAUUACGCGCG	-0.941 ± 0.056	-0.367 ± 0.087
CUUCAGCAAUAUUACGGCCU		-1.66 ± 0.38
CUUCAGCAAUAUUACGGGAU	-2.14 ± 0.084	-1.34 ± 0.095
CUUCAGCAAUAUUACGGUCU	-2.93 ± 0.15	-2.21 ± 0.2
CUUCAGCAAUAUUACGGUGA	-3.2 ± 0.21	-2.67 ± 0.18
CUUCAGCAAUAUUACGUAAA	-3.05 ± 0.15	-2.12 ± 0.19
CUUCAGCAAUAUUACGUAAC	-2.65 ± 0.32	-2.27 ± 0.45
CUUCAGCAAUAUUACGUCCA	-2.19 ± 0.29	-2.63 ± 0.36
CUUCAGCAAUAUUACGUGAA	-2.71 ± 0.12	-2.72 ± 0.2
CUUCAGCAAUAUUACGUGGC	-2.61 ± 0.23	-2.08 ± 0.43
CUUCAGCAAUAUUACGUGUC	-3.03 ± 0.13	-2.3 ± 0.12
CUUCAGCAAUAUUACGUUGG	-3.67 ± 0.23	-4.08 ± 0.46
CUUGAGCAAUAUUACGAACC		-1.54 ± 0.44
CUUGAGCAAUAUUACGAAUA	-3.26 ± 0.48	

Sequence	self-splicing fitness (ln) (30 °C)	self-splicing fitness (ln) (37 °C)
CUUGAGCAAUAUUACGAGCU	-1.6 ± 0.46	
CUUGAGCAAUAUUACGAGGU	-2.39 ± 0.19	-2.42 ± 0.22
CUUGAGCAAUAUUACGAUCA		-2.89 ± 0.48
CUUGAGCAAUAUUACGAUGG	-2.94 ± 0.2	-2.13 ± 0.23
CUUGAGCAAUAUUACGCGGG	-3.92 ± 0.3	-0.302 ± 0.18
CUUGAGCAAUAUUACGCGUG	-2.84 ± 0.18	-0.143 ± 0.11
CUUGAGCAAUAUUACGCUCG	-1.7 ± 0.17	-2.65 ± 0.44
CUUGAGCAAUAUUACGCUGU	-2.28 ± 0.19	-2.06 ± 0.32
CUUGAGCAAUAUUACGGAGU	-1.09 ± 0.13	-1.97 ± 0.28
CUUGAGCAAUAUUACGGAUC		-1.45 ± 0.31
CUUGAGCAAUAUUACGGGCC		-2.81 ± 0.34
CUUGAGCAAUAUUACGGUGC	-3.34 ± 0.35	-2.19 ± 0.42
CUUGAGCAAUAUUACGGUUA	-2.25 ± 0.15	-3.21 ± 0.3
CUUGAGCAAUAUUACGUAAC	-1.67 ± 0.38	
CUUGAGCAAUAUUACGUGAG	-2.89 ± 0.12	-1.28 ± 0.12
CUUGAGCAAUAUUACGUGCU	-1.93 ± 0.11	-3.89 ± 0.42
CUUGAGCAAUAUUACGUUAU	-3.45 ± 0.27	-2.77 ± 0.36
CUUGAGCAAUAUUACGUUGU	-3.73 ± 0.14	-2.94 ± 0.14
CUUUAGCAAUAUUACGAAAC		-1.65 ± 0.32
CUUUAGCAAUAUUACGAGCG	-1.16 ± 0.073	0.0581 ± 0.12
CUUUAGCAAUAUUACGAGGG	-3.57 ± 0.21	-2.26 ± 0.27
CUUUAGCAAUAUUACGAGUG	-0.24 ± 0.06	-0.267 ± 0.077
CUUUAGCAAUAUUACGCACC	-2.92 ± 0.43	
CUUUAGCAAUAUUACGCAGU	-1.8 ± 0.3	-2.34 ± 0.49
CUUUAGCAAUAUUACGCUAU	-3.66 ± 0.31	-1.68 ± 0.23
CUUUAGCAAUAUUACGGAGU		-2.46 ± 0.48
